According to US20090246219A1:

Molecular target: recombinant truncated protein E pE22-160, designated pE(A) (H. influenzae (NTHi strain 772))
Test: Western blot of pE(A) probed with IgD(λ)

“human IgD(λ) myeloma protein (human IgD myeloma whole serum IgD(λ), The Binding Site, Birmingham, England) (antibody)” gave an amount of pE(A) detected on Western blot of 0.01 microg.
